T1: rEhTRF1 (TBP-related factor 1) (Entamoeba histolytica, UniProt A7UFC2 1-216)
T1 sequence: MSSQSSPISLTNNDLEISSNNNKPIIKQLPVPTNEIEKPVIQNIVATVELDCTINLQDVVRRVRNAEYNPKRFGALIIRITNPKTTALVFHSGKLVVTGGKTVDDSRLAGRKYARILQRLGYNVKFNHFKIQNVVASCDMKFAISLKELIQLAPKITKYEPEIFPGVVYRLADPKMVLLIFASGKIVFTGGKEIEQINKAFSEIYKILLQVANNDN

T2: rEhTBP (TATA-box binding protein) (Entamoeba histolytica, UniProt P52653 1-234)
T2 sequence: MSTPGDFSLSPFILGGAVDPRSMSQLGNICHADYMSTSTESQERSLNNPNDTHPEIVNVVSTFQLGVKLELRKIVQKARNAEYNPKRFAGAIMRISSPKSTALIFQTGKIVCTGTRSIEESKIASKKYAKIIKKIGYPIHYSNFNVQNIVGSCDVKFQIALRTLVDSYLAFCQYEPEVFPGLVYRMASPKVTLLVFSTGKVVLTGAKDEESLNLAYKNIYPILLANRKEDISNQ

B1: GAAC-like box (dsDNA)
DNA 1: AGGCGAACTACAAAAGAT
DNA 2: ATCTTTTGTAGTTCGCCT
B2: TATTTAAA (1) (dsDNA)
DNA 1: AATTCTCTATTTAAAGAGAATT
DNA 2: AATTCTCTTTAAATAGAGAATT
B3: TATTaAAA (4) (dsDNA)
DNA 1: AATTCTCTATTAAAAGAGAATT
DNA 2: AATTCTCTTTTAATAGAGAATT
B4: TAcTcAAA (7) (dsDNA)
DNA 1: AATTCTCTACTCAAAGAGAATT
DNA 2: AATTCTCTTTGAGTAGAGAATT
B5: TATTggAA (3) (dsDNA)
DNA 1: AATTCTCTATTGGAAGAGAATT
DNA 2: AATTCTCTTCCAATAGAGAATT
B6: cAcTcAAA (8) (dsDNA)
DNA 1: AATTCTCCACTCAAAGAGAATT
DNA 2: AATTCTCTTTGAGTGGAGAATT
B7: gAgTTAAA (6) (dsDNA)
DNA 1: AATTCTCGAGTTAAAGAGAATT
DNA 2: AATTCTCTTTAACTCGAGAATT
B8: cAcTTAAA (9) (dsDNA)
DNA 1: AATTCTCCACTTAAAGAGAATT
DNA 2: AATTCTCTTTAAGTGGAGAATT
B9: TAgTgAAA (2) (dsDNA)
DNA 1: AATTCTCTAGTGAAAGAGAATT
DNA 2: AATTCTCTTTCACTAGAGAATT
B10: TATgTAAA (5) (dsDNA)
DNA 1: AATTCTCTATGTAAAGAGAATT
DNA 2: AATTCTCTTTACATAGAGAATT
B11: TATTTttt (10) (dsDNA)
DNA 1: AATTCTCTATTTTTTGAGAATT
DNA 2: AATTCTCAAAAAATAGAGAATT
B12: GAAC-box (wild type) (dsDNA)
DNA 1: AAGACAATGAACTAGAATG
DNA 2: CATTCTAGTTCATTGTCTT

target: T1, rEhTRF1 (TBP-related factor 1); assay: EMSA; specifically competed; EMSA: 12 mM Hepes pH 7.9, 60 mM KCl, 1 mM each DTT, EDTA, spermidine and MgCl2, 10% glycerol, poly(dG-dC) 1 ug/ul, 10 min at 4 C; probe 557 pM (TATA), 64 pM (GAAC) or 82 pM (GAAC-like); conditions: protein: recombinant; tags: His tag; label: 5'-32P; blunt

Binder	binding result
B1	binds

target: T2, rEhTBP (TATA-box binding protein); assay: EMSA; complex barely competed by specific competitor; EMSA: 12 mM Hepes pH 7.9, 60 mM KCl, 1 mM each DTT, EDTA, spermidine and MgCl2, 10% glycerol, poly(dG-dC) 1 ug/ul, 10 min at 4 C; probe 557 pM (TATA), 64 pM (GAAC) or 82 pM (GAAC-like); conditions: protein: recombinant; tags: His tag; label: 5'-32P; blunt

Binder	binding result
B1	binds

target: T2, rEhTBP (TATA-box binding protein); assay: EMSA; 4 C, 1 mM MgCl2; EMSA: 12 mM Hepes pH 7.9, 60 mM KCl, 1 mM each DTT, EDTA, spermidine and MgCl2, 10% glycerol, poly(dG-dC) 1 ug/ul, 10 min at 4 C; probe 557 pM (TATA), 64 pM (GAAC) or 82 pM (GAAC-like); conditions: protein: recombinant; tags: His tag; label: 5'-32P; blunt

Binder	Kd [nM]	binding result
B2	0.0207	–
B3	0.00485	–
B4	0.00276	–
B5	0.0357	–
B6	0.038	–
B7	0.00473	–
B8	–	no binding
B9	0.0398	–
B10	0.00169	–
B11	0.0034	–
B12	0.019	–

target: T1, rEhTRF1 (TBP-related factor 1); assay: as above; conditions: protein: recombinant; tags: His tag; label: 5'-32P; blunt

Binder	Kd [nM]
B2	0.0529
B3	0.00398
B4	0.0298
B5	0.0135
B6	0.0308
B7	0.00685
B8	0.00972
B9	0.013
B10	0.00674
B11	0.0254
B12	0.0794

From article PMC5842622, “The Entamoeba histolytica TBP and TRF1 transcription factors are GAAC-box binding proteins, which display differential gene expression under different stress stimuli and during the interaction with ma”
